Each block holds one binder with its values, some of them ahead of it.
How the values were obtained:
[1] = molecular target: T1, Rsp5 HECT domain (444-809) (S. cerevisiae, UniProt P39940 444-809); assay: ITC; Affinity-ITC calorimeter, 25°C; 20 mM Tris-HCl pH 7.5, 150 mM NaCl, 1 mM DTT; independent binding model; conditions: both partners purified
T1 construct: Rsp5 HECT domain, S. cerevisiae, residues 444-809; also called Rsp5 HECT protein; source: E. coli Rosetta (DE3), purified (TALON, Ulp1 cleavage, Superdex 200); not shown: His6, N-terminal, cleaved; SUMO, N-terminal, cleaved
T1 sequence (looked up): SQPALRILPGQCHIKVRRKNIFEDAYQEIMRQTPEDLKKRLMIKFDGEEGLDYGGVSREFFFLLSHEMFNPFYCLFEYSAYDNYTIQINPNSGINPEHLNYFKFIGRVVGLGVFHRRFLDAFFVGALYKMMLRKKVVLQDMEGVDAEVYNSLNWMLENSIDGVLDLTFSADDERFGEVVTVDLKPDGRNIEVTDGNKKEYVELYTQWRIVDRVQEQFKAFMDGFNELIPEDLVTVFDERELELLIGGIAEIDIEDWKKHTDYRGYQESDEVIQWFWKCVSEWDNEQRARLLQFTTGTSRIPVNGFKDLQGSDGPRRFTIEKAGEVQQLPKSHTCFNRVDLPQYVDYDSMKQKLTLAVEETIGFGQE

[2] = molecular target: T2, Rsp5 WW1-HECT domain (224-809) (S. cerevisiae, UniProt P39940 224-809); assay: as above; conditions: both partners purified
T2 construct: Rsp5 WW1-HECT, S. cerevisiae, residues 224-809; also called purified WW domains from Rsp5; source: E. coli Rosetta (DE3), purified (TALON, Ulp1 cleavage, Superdex 200); not shown: His6, N-terminal, cleaved; SUMO, N-terminal, cleaved

Kd [1]: ~201 µM
B1: mono-ubiquitin (WT) (natural protein)
chain: not shown
notes: ubiquitin, S. cerevisiae, amplified from SEY6210 genomic DNA; also called Ub-WT; mono-Ub-WT; source: E. coli Rosetta (DE3), non-tagged, purified (SP Sepharose, Superdex 200)

Kd [2]: 3.1 µM
B2: Art5 PY motifs containing region (520-586) (domain or fragment, S. cerevisiae, UniProt P53244 520-586, looked up)
chain: STTTAHLALPQPPPNYHESTNDHLMPALQPLGADSVVLTVPSYEQAQAQASASSYVTGSVPAYCDDD
notes: Art5, S. cerevisiae, residues 520-586 with the PY motifs; also called Art5 PY motif containing peptide; PY motifs of Art5; source: E. coli Rosetta (DE3), purified (Glutathione Sepharose, PreScission cleavage, Superdex 200)

Kd [1]: 33 µM
B3: K63-linked di-ubiquitin (complex)
chain 1: not shown
chain 2: not shown
modifications: distal ubiquitin; its C-terminus is joined by an isopeptide bond to K63 of the proximal ubiquitin | proximal ubiquitin; K63 carries the distal ubiquitin
notes: ubiquitin, S. cerevisiae; distal ubiquitin of the dimer; proximal ubiquitin of the dimer with an extra D77 after the C-terminal Gly-Gly; also called K63 di-Ub; K63-di-Ub; source: synthesised in vitro from purified Ub K63R and Ub D77 with human E1, Ubc13 and Mms2; purified (SP Sepharose, Superdex 75)

Kd [1]: 145 µM
B4: K48-linked di-Ub (complex)
chain 1: not shown
chain 2: not shown
modifications: distal ubiquitin; its C-terminus is joined by an isopeptide bond to K48 of the proximal ubiquitin | proximal ubiquitin; K48 carries the distal ubiquitin
notes: ubiquitin, S. cerevisiae; distal ubiquitin of the dimer; proximal ubiquitin of the dimer with an extra D77 after the C-terminal Gly-Gly; also called K48 di-Ub; source: synthesised in vitro from purified Ub K48R and Ub D77 with human E1 and E2-25K; purified (SP Sepharose, Superdex 75)
